Biological target: the molecule itself
Test: SEC

Row | Protein | binding result
1 | Mycobacterium tuberculosis TreS P511W (enzyme, also called Mtb TreS-P511W) MNEAEHSVEHPPVQGSHVEGGVVEHPDAKDFGSAAALPADPTWFKHAVFYEVLVRAFFDASADGSGDLRGLIDRLDYLQWLGIDCIWLPPFYDSPLRDGGYDIRDFYKVLPEFGTVDDFVALVDAAHRRGIRIITDLVMNHTSESHPWFQESRRDPDGPYGDYYVWSDTSERYTDARIIFVDTEESNWSFDPVRRQFYWHRFFSHQPDLNYDNPAVQEAMIDVIRFWLGLGIDGFRLDAVPYLFEREGTNCENLPETHAFLKRVRKVVDDEFPGRVLLAEANQWPGDVVEYFGDPNTGGDECHMAFHFPLMPRIFMAVRRESRFPISEIIAQTPPIPDMAQWGIFLRNHDELTLEMVTDEERDYMYAEYAKDPRMKANVGIRRRLAPLLDNDRNQIELFTALLLSLPGSPVLYYGDEIGMGDVIWLGDRDGVRIPMQWTPDRNAGFSTANPGRLYLPPSQDPVYGYQAVNVEAQRDTSTSLLNFTRTMLAVRRRHPAFAVGAFQELGGSNWSVLAYVRQVAGDDGDTVLCVNNLSRFPQPIELDLQQWTNYTPVELTGHVEFPRIGQVPYLLTLPGHGFYWFQLTTHEVGAPPTCGGERRL | binds
2 | Mycobacterium tuberculosis TreS R320E (enzyme, also called Mtb TreS-R320E) MNEAEHSVEHPPVQGSHVEGGVVEHPDAKDFGSAAALPADPTWFKHAVFYEVLVRAFFDASADGSGDLRGLIDRLDYLQWLGIDCIWLPPFYDSPLRDGGYDIRDFYKVLPEFGTVDDFVALVDAAHRRGIRIITDLVMNHTSESHPWFQESRRDPDGPYGDYYVWSDTSERYTDARIIFVDTEESNWSFDPVRRQFYWHRFFSHQPDLNYDNPAVQEAMIDVIRFWLGLGIDGFRLDAVPYLFEREGTNCENLPETHAFLKRVRKVVDDEFPGRVLLAEANQWPGDVVEYFGDPNTGGDECHMAFHFPLMPRIFMAVREESRFPISEIIAQTPPIPDMAQWGIFLRNHDELTLEMVTDEERDYMYAEYAKDPRMKANVGIRRRLAPLLDNDRNQIELFTALLLSLPGSPVLYYGDEIGMGDVIWLGDRDGVRIPMQWTPDRNAGFSTANPGRLYLPPSQDPVYGYQAVNVEAQRDTSTSLLNFTRTMLAVRRRHPAFAVGAFQELGGSNPSVLAYVRQVAGDDGDTVLCVNNLSRFPQPIELDLQQWTNYTPVELTGHVEFPRIGQVPYLLTLPGHGFYWFQLTTHEVGAPPTCGGERRL | binds

Source: article PMC6509496, “Crystal structure of the TreS:Pep2 complex, initiating α-glucan synthesis in the GlgE pathway of mycobacteria” (The Journal of Biological Chemistry, 2019)
